Numbering of substitutions follows the chain as printed. Names may count otherwise.
Molecular target: Factor X (FX), P00742
Sequence (P00742 whole entry, looked up): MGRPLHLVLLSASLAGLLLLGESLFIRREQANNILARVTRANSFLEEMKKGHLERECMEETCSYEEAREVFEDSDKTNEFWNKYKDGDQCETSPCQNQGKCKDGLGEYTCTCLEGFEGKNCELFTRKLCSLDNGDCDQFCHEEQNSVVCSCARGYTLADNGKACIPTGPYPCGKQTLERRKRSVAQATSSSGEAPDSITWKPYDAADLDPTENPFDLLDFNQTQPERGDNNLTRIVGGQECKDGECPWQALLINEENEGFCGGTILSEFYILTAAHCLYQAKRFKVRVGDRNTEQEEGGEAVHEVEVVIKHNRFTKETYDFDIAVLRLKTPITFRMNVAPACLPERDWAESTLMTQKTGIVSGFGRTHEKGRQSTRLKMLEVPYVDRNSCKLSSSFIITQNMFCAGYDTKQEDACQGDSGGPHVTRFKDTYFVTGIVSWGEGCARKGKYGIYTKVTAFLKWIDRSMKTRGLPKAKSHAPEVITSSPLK

B1: FIXa-K247N/N249S/R318Y/R338E/T343R/E410N (protein)
chain 1: YNSGKLEEFVQGNLERECMEEKCSFEEAREVFENTERTTEFWKQYVDGDQCESNPCLNGGSCKDDINSYECWCPFGFEGKNCELDVTCNIKNGRCEQFCKNSADNKVVCSCTEGYRLAENQKSCEPAVPFPCGRVSVSQTSKLTR
chain 2: VVGGEDAKPGQFPWQVVLNGKVDAFCGGSIVNEKWIVTAAHCVETGVKITVVAGEHNIEETEHTEQNRSVIRIIPHHNYNAAINKYNHDIALLELDEPLVLNSYVTPICIADKEYTNIFLKFGSGYVSGWGRVFHKGYSALVLQYLRVPLVDRATCLESTKFRIYNNMFCAGFHEGGRDSCQGDSGGPHVTEVEGTSFLTGIISWGEECAMKGKYGIYTKVSRYVNWIKNKTKLT
% of WT kcat/KM: 687% | KM: 0.0328 µM | kcat (s^-1) of FX activation by FIXa variant in the Xase complex (FVIIIa, PC/PS vesicles, Ca2+), fluorogenic FXa read-out: 8.8 s⁻¹ | kcat/KM for FX activation (Xase: FVIIIa, PC/PS vesicles, Ca2+): 3.2e+08 M⁻¹ s⁻¹

B2: FIXa-Y155F/K247N/N249S/T343R/R403E/E410N (protein)
chain 1: B1 chain 1
chain 2: B1 chain 2 with Y138R, E158R, R223E
% of WT kcat/KM: 635% | KM: 0.052 µM | kcat (s^-1) of FX activation by FIXa variant in the Xase complex (FVIIIa, PC/PS vesicles, Ca2+), fluorogenic FXa read-out: 15 s⁻¹ | kcat/KM for FX activation (Xase: FVIIIa, PC/PS vesicles, Ca2+): 2.9e+08 M⁻¹ s⁻¹

B3: FIXa-K247N/N249S/R338E/T343R/E410N (protein)
chain 1: B1 chain 1
chain 2: B1 chain 2 with Y138R
% of WT kcat/KM: 676% | KM: 0.0275 µM | kcat (s^-1) of FX activation by FIXa variant in the Xase complex (FVIIIa, PC/PS vesicles, Ca2+), fluorogenic FXa read-out: 7.9 s⁻¹ | kcat/KM for FX activation (Xase: FVIIIa, PC/PS vesicles, Ca2+): 3.1e+08 M⁻¹ s⁻¹

B4: FIXa-Y155F/R318Y/R338E/T343R/R403E/E410N (protein)
chain 1: B1 chain 1
chain 2: B1 chain 2 with N67K, S69N, R223E
kcat of FX activation by FIXa (Xase complex with FVIIIa, PC/PS vesicles, Ca2+): 7.8 s⁻¹

B5: FIXa variant Y155F/K228N/R318Y/R338E/R403E/E410N (protein)
chain 1: B1 chain 1
chain 2: B1 chain 2 with K48N, N67K, S69N, R163T, R223E
kcat: 6.7 s⁻¹

B6: FIXa-Y155F/R338E/R403E/E410N (protein)
chain 1: B1 chain 1
chain 2: B1 chain 2 with N67K, S69N, Y138R, E158R, R163T, R178E, R223E
kcat: 5.9 s⁻¹

B7: FIXa variant K247N/N249S/R318Y/R338E/E410N (protein)
chain 1: B1 chain 1
chain 2: B1 chain 2 with R163T
kcat: 3.8 s⁻¹

B8: FIXa-D104N/K106S/R318Y/R338E/T343R/R403E/E410N (protein)
chain 1: B1 chain 1 with D104N, K106S
chain 2: B1 chain 2 with N67K, S69N, R223E
kcat of FX activation by FIXa (Xase complex with FVIIIa, PC/PS vesicles, Ca2+): 5.7 s⁻¹

B9: FIXa variant D85N/K228N/R318Y/R338E/R403E/E410N (protein)
chain 1: B1 chain 1 with D85N
chain 2: B1 chain 2 with K48N, N67K, S69N, R163T, R223E
kcat: 6 s⁻¹

B10: FIXa variant I251S/R318Y/R338E/R403E/E410N (protein)
chain 1: B1 chain 1
chain 2: B1 chain 2 with N67K, S69N, I71S, R163T, R223E
kcat: 4.8 s⁻¹

B11: FIXa-K247N/N249S/R318Y/T343R/E410N (protein)
chain 1: B1 chain 1
chain 2: B1 chain 2 with E158R
% of WT kcat/KM: 439% | KM: 0.0401 µM | kcat (s^-1) of FX activation by FIXa variant in the Xase complex (FVIIIa, PC/PS vesicles, Ca2+), fluorogenic FXa read-out: 6.1 s⁻¹ | kcat/KM for FX activation (Xase: FVIIIa, PC/PS vesicles, Ca2+): 2e+08 M⁻¹ s⁻¹

B12: FIXa variant Y155F/K247N/N249S/R318Y/R338E/R403E/E410N (protein)
chain 1: B1 chain 1
chain 2: B1 chain 2 with R163T, R223E
kcat: 6.2 s⁻¹

B13: FIXa-R318Y/R338E/Y345A/R403E/E410N (protein)
chain 1: B1 chain 1
chain 2: B1 chain 2 with N67K, S69N, R163T, Y165A, R223E
kcat of FX activation by FIXa (Xase complex with FVIIIa, PC/PS vesicles, Ca2+): 1.4 s⁻¹

B14: FIXa-Y155F/R318Y/R338E/R403E (protein)
chain 1: B1 chain 1
chain 2: B1 chain 2 with N67K, S69N, R163T, R223E, N230E
kcat: 5.1 s⁻¹

B15: FIXa variant Y155F/K247N/N249S/R318Y/R338E/E410N (protein)
chain 1: B1 chain 1
chain 2: B1 chain 2 with R163T
kcat: 4.5 s⁻¹

B16: FIXa variant Y259F/K265T/Y345T (protein)
chain 1: B1 chain 1
chain 2: B1 chain 2 with N67K, S69N, Y79F, K85T, Y138R, E158R, R163T, Y165T, N230E
kcat: 1.7 s⁻¹

B17: FIXa-Y155F/R318Y/R403E/E410N (protein)
chain 1: B1 chain 1
chain 2: B1 chain 2 with N67K, S69N, E158R, R163T, R223E
kcat: 2.9 s⁻¹

B18: FIXa-Y155F/K247N/N249S/R338E/E410N (protein)
chain 1: B1 chain 1
chain 2: B1 chain 2 with Y138R, R163T
% of WT kcat/KM: 1009% | KM: 0.0177 µM | kcat (s^-1) of FX activation by FIXa variant in the Xase complex (FVIIIa, PC/PS vesicles, Ca2+), fluorogenic FXa read-out: 7.3 s⁻¹ | kcat/KM for FX activation (Xase: FVIIIa, PC/PS vesicles, Ca2+): 4.7e+08 M⁻¹ s⁻¹

B19: FIXa variant D104N/K106S/K247N/N249S/R318Y/R338E/R403E/E410N (protein)
chain 1: B1 chain 1 with D104N, K106S
chain 2: B1 chain 2 with R163T, R223E
kcat: 5.2 s⁻¹

B20: FIXa-Y155F/K247N/N249S/R338E/T343R/E410N (protein)
chain 1: B1 chain 1
chain 2: B1 chain 2 with Y138R
% of WT kcat/KM: 391% | KM: 0.027 µM | kcat (s^-1) of FX activation by FIXa variant in the Xase complex (FVIIIa, PC/PS vesicles, Ca2+), fluorogenic FXa read-out: 4.8 s⁻¹ | kcat/KM for FX activation (Xase: FVIIIa, PC/PS vesicles, Ca2+): 1.8e+08 M⁻¹ s⁻¹

B21: FIXa variant D104N/K106S/Y155F/K247N/N249S/R318Y/R338E/R403E/E410N (protein)
chain 1: B1 chain 1 with D104N, K106S
chain 2: B1 chain 2 with R163T, R223E
kcat: 6.9 s⁻¹

B22: FIXa-K247N/N249S/R338E/T343R/R403E (protein)
chain 1: B1 chain 1
chain 2: B1 chain 2 with Y138R, R223E, N230E
% of WT kcat/KM: 1215% | KM: 0.0263 µM | catalytic activity (kcat/KM) for activation of FX: improved activity when combined with other mutations | kcat (s^-1) of FX activation by FIXa variant in the Xase complex (FVIIIa, PC/PS vesicles, Ca2+), fluorogenic FXa read-out: 14.6 s⁻¹ | kcat/KM for FX activation (Xase: FVIIIa, PC/PS vesicles, Ca2+): 5.6e+08 M⁻¹ s⁻¹

B23: FIXa-R318Y/R338E/T343R/N346Y/R403E/E410N (protein)
chain 1: B1 chain 1
chain 2: B1 chain 2 with N67K, S69N, N166Y, R223E
kcat of FX activation by FIXa (Xase complex with FVIIIa, PC/PS vesicles, Ca2+): 4.6 s⁻¹

B24: FIXa-K247N/N249S/R318Y/T343R/R403E/E410N (protein)
chain 1: B1 chain 1
chain 2: B1 chain 2 with E158R, R223E
% of WT kcat/KM: 279% | KM: 0.0805 µM | kcat (s^-1) of FX activation by FIXa variant in the Xase complex (FVIIIa, PC/PS vesicles, Ca2+), fluorogenic FXa read-out: 9.5 s⁻¹ | kcat/KM for FX activation (Xase: FVIIIa, PC/PS vesicles, Ca2+): 1.3e+08 M⁻¹ s⁻¹

B25: FIXa variant D104N/K106S/I251S/R318Y/R338E/R403E/E410N (protein)
chain 1: B1 chain 1 with D104N, K106S
chain 2: B1 chain 2 with N67K, S69N, I71S, R163T, R223E
kcat: 5.5 s⁻¹

B26: FIXa-Y155F/K247N/N249S/R338E/T343R/R403E (protein)
chain 1: B1 chain 1
chain 2: B1 chain 2 with Y138R, R223E, N230E
% of WT kcat/KM: 1269% | KM: 0.0251 µM | kcat (s^-1) of FX activation by FIXa variant in the Xase complex (FVIIIa, PC/PS vesicles, Ca2+), fluorogenic FXa read-out: 14.6 s⁻¹ | kcat/KM for FX activation (Xase: FVIIIa, PC/PS vesicles, Ca2+): 5.9e+08 M⁻¹ s⁻¹

B27: FIXa-K247N/N249S/R318Y/T343R/R403E (protein)
chain 1: B1 chain 1
chain 2: B1 chain 2 with E158R, R223E, N230E
% of WT kcat/KM: 84% | KM: 0.105 µM | kcat (s^-1) of FX activation by FIXa variant in the Xase complex (FVIIIa, PC/PS vesicles, Ca2+), fluorogenic FXa read-out: 3.7 s⁻¹ | kcat/KM for FX activation (Xase: FVIIIa, PC/PS vesicles, Ca2+): 3.9e+07 M⁻¹ s⁻¹

B28: FIXa-Y155F/K247N/N249S/R318Y/T343R/E410N (protein)
chain 1: B1 chain 1
chain 2: B1 chain 2 with E158R
% of WT kcat/KM: 668% | KM: 0.0381 µM | kcat (s^-1) of FX activation by FIXa variant in the Xase complex (FVIIIa, PC/PS vesicles, Ca2+), fluorogenic FXa read-out: 8.1 s⁻¹ | kcat/KM for FX activation (Xase: FVIIIa, PC/PS vesicles, Ca2+): 3.1e+08 M⁻¹ s⁻¹

B29: FIXa variant K247N/N249S/R318Y/R338E/R403E/E410N (protein)
chain 1: B1 chain 1
chain 2: B1 chain 2 with R163T, R223E
kcat: 5.8 s⁻¹

B30: FIXa-Y155F/K247N/N249S/R318Y/T343R/R403E/E410N (protein)
chain 1: B1 chain 1
chain 2: B1 chain 2 with E158R, R223E
% of WT kcat/KM: 350% | KM: 0.0606 µM | kcat (s^-1) of FX activation by FIXa variant in the Xase complex (FVIIIa, PC/PS vesicles, Ca2+), fluorogenic FXa read-out: 9 s⁻¹ | kcat/KM for FX activation (Xase: FVIIIa, PC/PS vesicles, Ca2+): 1.6e+08 M⁻¹ s⁻¹

B31: FIXa-R318Y/R338E/T343R/N346D/R403E/E410N (protein)
chain 1: B1 chain 1
chain 2: B1 chain 2 with N67K, S69N, N166D, R223E
kcat of FX activation by FIXa (Xase complex with FVIIIa, PC/PS vesicles, Ca2+): 5.4 s⁻¹

B32: FIXa-R318Y/R338E/N346Y/R403E/E410N (protein)
chain 1: B1 chain 1
chain 2: B1 chain 2 with N67K, S69N, R163T, N166Y, R223E
kcat of FX activation by FIXa (Xase complex with FVIIIa, PC/PS vesicles, Ca2+): 3.4 s⁻¹

B33: FIXa variant Y155F/I251S/R318Y/R338E/R403E/E410N (protein)
chain 1: B1 chain 1
chain 2: B1 chain 2 with N67K, S69N, I71S, R163T, R223E
kcat: 7.2 s⁻¹

B34: FIXa-D104N/K106S/K228N/K247N/N249S/R318Y/R338E/R403E/E410N (protein)
chain 1: B1 chain 1 with D104N, K106S
chain 2: B1 chain 2 with K48N, R163T, R223E
kcat of FX activation by FIXa (Xase complex with FVIIIa, PC/PS vesicles, Ca2+): 6.1 s⁻¹

B35: FIXa-Y155F/K247N/N249S/R318Y/T343R/R403E (protein)
chain 1: B1 chain 1
chain 2: B1 chain 2 with E158R, R223E, N230E
% of WT kcat/KM: 276% | KM: 0.0605 µM | kcat (s^-1) of FX activation by FIXa variant in the Xase complex (FVIIIa, PC/PS vesicles, Ca2+), fluorogenic FXa read-out: 7.5 s⁻¹ | kcat/KM for FX activation (Xase: FVIIIa, PC/PS vesicles, Ca2+): 1.3e+08 M⁻¹ s⁻¹

B36: FIXa variant I251S/R318Y/R338E/E410N (protein)
chain 1: B1 chain 1
chain 2: B1 chain 2 with N67K, S69N, I71S, R163T
kcat: 6.4 s⁻¹

From patent US20210238260
